In PMC9482650, “Quantitative fragmentomics allow affinity mapping of interactomes” (Nature Communications, 2022):

T1: APBA1_1, Q02410
T1 sequence (Q02410 651-752, limits assumed, looked up): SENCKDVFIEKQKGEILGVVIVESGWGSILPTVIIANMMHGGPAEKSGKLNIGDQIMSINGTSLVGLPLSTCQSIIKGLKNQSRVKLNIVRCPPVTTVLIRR

T2: APBA2_1, Q99767
T2 sequence (Q99767 563-664, limits assumed, looked up): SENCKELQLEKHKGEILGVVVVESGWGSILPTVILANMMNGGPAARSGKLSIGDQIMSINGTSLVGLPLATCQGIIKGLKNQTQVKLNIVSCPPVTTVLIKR

T3: APBA2_2, Q99767
T3 sequence (Q99767 654-744, limits assumed, looked up): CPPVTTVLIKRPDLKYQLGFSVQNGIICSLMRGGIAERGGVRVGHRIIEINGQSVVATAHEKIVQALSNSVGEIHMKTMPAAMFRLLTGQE

T4: APBA3_1, O96018
T4 sequence (O96018 389-490, limits assumed, looked up): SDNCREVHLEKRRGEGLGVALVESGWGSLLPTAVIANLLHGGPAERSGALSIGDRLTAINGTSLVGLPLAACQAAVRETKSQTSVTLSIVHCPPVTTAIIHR

T5: DFNB31_3, Q9P202
T5 sequence (Q9P202 811-907, limits assumed, looked up): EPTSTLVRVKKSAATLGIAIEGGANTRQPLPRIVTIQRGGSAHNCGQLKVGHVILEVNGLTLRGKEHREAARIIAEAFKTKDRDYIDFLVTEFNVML

T6: DVL3, Q92997
T6 sequence (Q92997 244-331, limits assumed, looked up): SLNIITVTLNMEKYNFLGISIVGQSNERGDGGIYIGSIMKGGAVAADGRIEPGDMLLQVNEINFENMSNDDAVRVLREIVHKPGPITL

T7: HTRA4, P83105
T7 sequence (P83105 378-476, limits assumed, looked up): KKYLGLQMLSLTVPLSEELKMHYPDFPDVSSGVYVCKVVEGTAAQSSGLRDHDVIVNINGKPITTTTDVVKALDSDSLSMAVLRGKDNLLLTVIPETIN

T8: LIN7B, Q9HAP6
T8 sequence (Q9HAP6 88-185, limits assumed, looked up): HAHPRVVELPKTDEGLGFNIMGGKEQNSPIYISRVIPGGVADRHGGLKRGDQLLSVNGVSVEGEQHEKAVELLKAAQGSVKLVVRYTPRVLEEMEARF

T9: MPDZ_10, O75970
T9 sequence (O75970 1624-1722, limits assumed, looked up): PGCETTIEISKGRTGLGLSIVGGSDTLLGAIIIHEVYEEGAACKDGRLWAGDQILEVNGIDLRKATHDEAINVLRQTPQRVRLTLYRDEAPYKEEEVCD

T10: NHERF3_4, Q5T2W1
T10 sequence (Q5T2W1 373-468, limits assumed, looked up): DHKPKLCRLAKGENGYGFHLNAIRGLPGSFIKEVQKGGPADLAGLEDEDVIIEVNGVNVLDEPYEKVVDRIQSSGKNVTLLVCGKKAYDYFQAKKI

T11: PDZD7_3, Q9H5P4
T11 sequence (Q9H5P4 857-944, limits assumed, looked up): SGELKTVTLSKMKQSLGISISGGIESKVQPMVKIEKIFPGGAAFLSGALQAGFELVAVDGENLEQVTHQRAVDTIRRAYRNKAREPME

T12: SIPA1L2, Q9P2F8
T12 sequence (Q9P2F8 945-1036, limits assumed, looked up): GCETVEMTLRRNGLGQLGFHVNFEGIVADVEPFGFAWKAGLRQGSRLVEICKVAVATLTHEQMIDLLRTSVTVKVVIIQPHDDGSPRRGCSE

T13: SYNJ2BP, P57105
T13 sequence (P57105 8-110, limits assumed, looked up): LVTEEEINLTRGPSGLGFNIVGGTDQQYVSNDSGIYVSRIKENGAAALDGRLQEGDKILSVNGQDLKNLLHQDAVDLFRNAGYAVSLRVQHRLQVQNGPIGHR


What was measured:
Experiment in all cases: holdup assay
Parameters in all cases: key: below the threshold = too weak to quantify, mostly under pKd 3.1 to 4
Settings in all cases: plain residues with an end cap or a label only (N-terminal biotin on a linker: ado-ado)
APBA1_1, Q02410 = target: T1, APBA1_1, Q02410
APBA2_1, Q99767 = target: T2, APBA2_1, Q99767
APBA2_2, Q99767 = target: T3, APBA2_2, Q99767
APBA3_1, O96018 = target: T4, APBA3_1, O96018
DFNB31_3, Q9P202 = target: T5, DFNB31_3, Q9P202
DVL3, Q92997 = target: T6, DVL3, Q92997
FRMPD4, Q14CM0 = target: FRMPD4, Q14CM0
Chain of FRMPD4, Q14CM0 (Q14CM0 67-160): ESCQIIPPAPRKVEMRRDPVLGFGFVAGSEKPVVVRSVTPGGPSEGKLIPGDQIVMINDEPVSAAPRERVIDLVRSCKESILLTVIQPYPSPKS

GRASP, Q7Z6J2 = target: GRASP, Q7Z6J2
Chain of GRASP, Q7Z6J2 (Q7Z6J2 96-193): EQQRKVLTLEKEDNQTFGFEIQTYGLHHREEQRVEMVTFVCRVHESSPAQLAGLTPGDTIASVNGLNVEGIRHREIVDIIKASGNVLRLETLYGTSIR

GRIP2_3, Q9C0E4 = target: GRIP2_3, Q9C0E4
Chain of GRIP2_3, Q9C0E4 (Q9C0E4 238-339): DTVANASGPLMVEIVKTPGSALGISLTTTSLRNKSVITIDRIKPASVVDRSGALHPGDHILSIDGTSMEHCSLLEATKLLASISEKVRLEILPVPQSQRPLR

GRIP2_7, Q9C0E4 = target: GRIP2_7, Q9C0E4
Chain of GRIP2_7, Q9C0E4 (Q9C0E4 934-1023): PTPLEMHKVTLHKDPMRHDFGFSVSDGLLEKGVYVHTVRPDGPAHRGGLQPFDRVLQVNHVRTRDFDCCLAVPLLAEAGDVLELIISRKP

HTRA4, P83105 = target: T7, HTRA4, P83105
Inadl_2, Q8NI35 = target: Inadl_2, Q8NI35
Chain of Inadl_2, Q8NI35 (Q8NI35 238-335): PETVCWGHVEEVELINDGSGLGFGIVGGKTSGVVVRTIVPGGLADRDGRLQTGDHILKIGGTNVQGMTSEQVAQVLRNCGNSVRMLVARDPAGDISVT

LIN7B, Q9HAP6 = target: T8, LIN7B, Q9HAP6
MAGI2_4, Q86UL8 = target: MAGI2_4, Q86UL8
Chain of MAGI2_4, Q86UL8 (Q86UL8 772-865): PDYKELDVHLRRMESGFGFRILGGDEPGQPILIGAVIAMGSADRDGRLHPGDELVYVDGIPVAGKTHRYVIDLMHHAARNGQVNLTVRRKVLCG

MAGI3_2, Q5TCQ9 = target: MAGI3_2, Q5TCQ9
Chain of MAGI3_2, Q5TCQ9 (Q5TCQ9 398-503): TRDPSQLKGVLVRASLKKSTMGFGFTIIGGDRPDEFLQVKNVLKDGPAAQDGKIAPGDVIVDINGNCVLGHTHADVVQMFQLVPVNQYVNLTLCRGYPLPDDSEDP

MAST2, Q6P0Q8 = target: MAST2, Q6P0Q8
Chain of MAST2, Q6P0Q8 (Q6P0Q8 1099-1202): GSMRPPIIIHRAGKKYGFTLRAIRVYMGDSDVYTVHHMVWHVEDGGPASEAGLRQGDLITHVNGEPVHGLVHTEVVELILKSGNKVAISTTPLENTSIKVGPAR

MPDZ_10, O75970 = target: T9, MPDZ_10, O75970
NHERF3_4, Q5T2W1 = target: T10, NHERF3_4, Q5T2W1
PDLIM1, O00151 = target: PDLIM1, O00151
Chain of PDLIM1, O00151 (O00151 1-87): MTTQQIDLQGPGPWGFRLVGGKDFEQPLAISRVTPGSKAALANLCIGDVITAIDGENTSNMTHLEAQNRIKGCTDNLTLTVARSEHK

PDZD7_3, Q9H5P4 = target: T11, PDZD7_3, Q9H5P4
SIPA1L2, Q9P2F8 = target: T12, SIPA1L2, Q9P2F8
SNX27, Q96L92 = target: SNX27, Q96L92
SYNJ2BP, P57105 = target: T13, SYNJ2BP, P57105
TJP2_1, Q9UDY2 = target: TJP2_1, Q9UDY2
Chain of TJP2_1, Q9UDY2 (Q9UDY2 24-128): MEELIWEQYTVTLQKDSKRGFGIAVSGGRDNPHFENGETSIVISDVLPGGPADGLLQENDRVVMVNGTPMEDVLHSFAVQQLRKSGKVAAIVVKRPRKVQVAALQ

| pKd (APBA1_1, Q02410) | pKd (APBA2_1, Q99767) | pKd (APBA2_2, Q99767) | pKd (APBA3_1, O96018) | pKd (DFNB31_3, Q9P202) | pKd (DVL3, Q92997) | pKd (FRMPD4, Q14CM0) | pKd (GRASP, Q7Z6J2) | pKd (GRIP2_3, Q9C0E4) | pKd (GRIP2_7, Q9C0E4) | pKd (HTRA4, P83105) | pKd (Inadl_2, Q8NI35) | pKd (LIN7B, Q9HAP6) | pKd (MAGI2_4, Q86UL8) | pKd (MAGI3_2, Q5TCQ9) | pKd (MAST2, Q6P0Q8) | pKd (MPDZ_10, O75970) | pKd (NHERF3_4, Q5T2W1) | pKd (PDLIM1, O00151) | pKd (PDZD7_3, Q9H5P4) | Binder | also measured |
| --- | --- | --- | --- | --- | --- | --- | --- | --- | --- | --- | --- | --- | --- | --- | --- | --- | --- | --- | --- | --- | --- |
| below the threshold | below the threshold | below the threshold | below the threshold | 3.94 | below the threshold | below the threshold | below the threshold | below the threshold | below the threshold | 3.79 | below the threshold | below the threshold | 3.89 | below the threshold | 4.1 | below the threshold | below the threshold | below the threshold | 4.01 | YRLAQESGLV [ABCC6, O95255] | pKd (SIPA1L2, Q9P2F8): below the threshold; pKd (SNX27, Q96L92): below the threshold; pKd (SYNJ2BP, P57105): below the threshold; pKd (TJP2_1, Q9UDY2): below the threshold |
| below the threshold | below the threshold | below the threshold | below the threshold | below the threshold | below the threshold | below the threshold | below the threshold | below the threshold | below the threshold | below the threshold | below the threshold | 3.74 | below the threshold | below the threshold | 3.59 | below the threshold | below the threshold | below the threshold | below the threshold | SNAGNTATKA [NOSTRIN, Q8IVI9] | pKd (SIPA1L2, Q9P2F8): below the threshold; pKd (SNX27, Q96L92): below the threshold; pKd (SYNJ2BP, P57105): below the threshold; pKd (TJP2_1, Q9UDY2): below the threshold |
| below the threshold | below the threshold | below the threshold | below the threshold | 4.03 | below the threshold | below the threshold | 4.02 | below the threshold | below the threshold | 4.26 | below the threshold | below the threshold | 4.92 | 5.21 | 5.36 | below the threshold | below the threshold | below the threshold | 5.22 | SGSLKLMTTV [DACT1, Q9NYF0] | pKd (SIPA1L2, Q9P2F8): below the threshold; pKd (SNX27, Q96L92): 4.35; pKd (SYNJ2BP, P57105): 4.3; pKd (TJP2_1, Q9UDY2): 3.58 |
| below the threshold | below the threshold | below the threshold | below the threshold | 4.03 | below the threshold | below the threshold | below the threshold | below the threshold | below the threshold | below the threshold | below the threshold | below the threshold | below the threshold | 3.79 | 5.12 | below the threshold | below the threshold | below the threshold | 5.23 | ETQVTAETVI [TMEM225B, P0DP42] | pKd (SIPA1L2, Q9P2F8): below the threshold; pKd (SNX27, Q96L92): 5.39; pKd (SYNJ2BP, P57105): 3.92; pKd (TJP2_1, Q9UDY2): below the threshold |
| below the threshold | below the threshold | below the threshold | below the threshold | 3.9 | below the threshold | below the threshold | below the threshold | below the threshold | below the threshold | below the threshold | below the threshold | 3.75 | below the threshold | below the threshold | 3.69 | below the threshold | below the threshold | below the threshold | 3.76 | RKPKPSSSCC [RAB9A, P51151] | pKd (SIPA1L2, Q9P2F8): below the threshold; pKd (SNX27, Q96L92): below the threshold; pKd (SYNJ2BP, P57105): below the threshold; pKd (TJP2_1, Q9UDY2): below the threshold |
| below the threshold | below the threshold | below the threshold | below the threshold | below the threshold | below the threshold | below the threshold | below the threshold | below the threshold | below the threshold | below the threshold | below the threshold | below the threshold | below the threshold | below the threshold | 4.3 | below the threshold | below the threshold | below the threshold | below the threshold | LKVPPEERLI [CRB2, Q5IJ48] | pKd (SIPA1L2, Q9P2F8): below the threshold; pKd (SNX27, Q96L92): below the threshold; pKd (SYNJ2BP, P57105): below the threshold; pKd (TJP2_1, Q9UDY2): below the threshold |
